# B1: EWS low-complexity domain (N-terminal 264 residues of RNA-binding protein EWS) [not stated] / itself (parent)
# chain: GAMASTDYSTYSQAAAQQGYSAYTAQPTQGYAQTTQAYGQQSYGTYGQPTDVSYTQAQTTATYGQTAYATSYGQPPTGYTTPTAPQAYSQPVQGYGTGAYDTTTATVTTTQASYAAQSAYGTQPAYPAYGQQPAATAPTRPQDGNKPTETSQPQSSTGGYNQPSLGYGQSNYSYPQVPGSYPMQPVTAPPSYPPTSYSSTQPTSYDQSSYSQQNTYGQPSSYGQQSSYGQQSSYGQQPPTSYPPQTGSYSQAPSQYSQQSSSYGQQ
# Variants of: B1
# Assay: pelleting assay (phase separation)
# Conditions: with itself; 50 µM protein, 150 mM NaCl, 20 mM Tris pH 7.4; read off a plot
row,Variant,screen value
1,GAMASTDYSTYSQAAAQQGYSAYTAQPTQGYAQTTQAYGQQSYGTYGQPTDVSYTQAQTTATYGQTAYATSYGQPPTGYTTPTAPQAYSQPVQGYGTGAYDTTTATVTTTQASYAAQSAYGTQPAYPAYGQQPAATAPTRPQDGNKPTETSQPQSSTGGYNQPSLGYGQSSYSYPQVPGSYPMQPVTAPPSYPPTSYSSTQPTSYDQSSYSQQNTYGQPSSYGQQSSYGQQSSYGQQPPTSYPPQTGSYSQAPSQYSQQSSSYGQQ [chain 1 N171S],0.6
2,GAMASTDYSTYSQAAAQQGYSAYTAQPTQGYAQTTQAYGQQSYGTSGQPTDVSYTQAQTTATYGQTAYATSYGQPPTGYTTPTAPQAYSQPVQGYGTGAYDTTTATVTTTQASYAAQSAYGTQPAYPAYGQQPAATAPTRPQDGNKPTETSQPQSSTGGYNQPSLGYGQSNYSYPQVPGSYPMQPVTAPPSYPPTSYSSTQPTSYDQSSYSQQNTYGQPSSYGQQSSYGQQSSYGQQPPTSYPPQTGSYSQAPSQYSQQSSSYGQQ [chain 1 Y46S],0.64
3,GAMASTDYSTYSQAAAQQGYSAYTAQPTQGYAQTTQAYGQQSYGTYGQPTDVSYTQAQTTATYGQTAYATSYGQPPTGYTTPTAPQAYSQPVQGYGTGAYDTTTATVTTTQASYAAQSAYGTQPAYPAYGQQPAATAPTRPQDGNKPTETSQPQSSTGGYNQPSLGYGQSNSSSPQVPGSYPMQPVTAPPSYPPTSYSSTQPTSYDQSSYSQQNTYGQPSSYGQQSSYGQQSSYGQQPPTSYPPQTGSYSQAPSQYSQQSSSYGQQ [chain 1 Y172S Y174S],0.81
4,GAMASTDYSTYSQAAAQQGYSAYTAQPTQGYAQTTQAYGQQSYGTYGQPTDVSYTQAQTTATYGQTAYATSYGQPPTGYTTPTAPQAYSQPVQGYGTGAYDTTTATVTTTQASYAAQSAYGTQPAYPAYGQQPAATAPTRPQDGNKPTETSQPQSSTGGYNQPSLGYGQSNYSSPQVPGSYPMQPVTAPPSYPPTSYSSTQPTSYDQSSYSQQNTYGQPSSYGQQSSYGQQSSYGQQPPTSYPPQTGSYSQAPSQYSQQSSSYGQQ [chain 1 Y174S],0.75
5,GAMASTDYSTYSQAAAQQGYSAYTAQPTQGYAQTTQAYGQQSYGTYGQPTDVSYTQAQTTATYGQTAYATSYGQPPTGYTTPTAPQAYSQPVQGYGTGAYDTTTATVTTTQASYAAQSAYGTQPAYPAYGQQPAATAPTRPQDGNKPTETSQPQSSTGGYNQPSLGYGQSNYSYPQVPGSYPMQPVTAPPSYPPTSYSSTQPTSYDQSSSSQQNTYGQPSSYGQQSSYGQQSSYGQQPPTSYPPQTGSYSQAPSQYSQQSSSYGQQ [chain 1 Y210S],0.5

# — article doi:10.1101/2023.10.27.564484, “Insights into Molecular Diversity within the FET Family: Unraveling Phase Separation of the N-Terminal Low Complexity Domain from RNA-Binding Protein EWS” (bioRxiv, 2023)
